Reference: PMC10323247

Legend:
[1] = molecular target: recombinant human augmin complex (GFP-augmin), all eight full-length subunits HAUS1-HAUS8 (human) (UniProt Q96CS2); assay: single-molecule TIRF fluorescence intensity analysis; GFP-augmin particles diffusing on microtubules; particle intensity divided by the intensity of single mGFP-augmin particles (photobleaching experiment); settings: remark: other sources report otherwise
[2] = molecular target: GMPCPP- and Taxol-stabilised TAMRA-labelled microtubules of porcine brain tubulin (porcine) (UniProt P02550); assay: TIRF microscopy binding assay; 1 nM GFP-augmin on surface-attached TAMRA-microtubules with importin α, importin β (25-400 nM) or importin α/β (25-100 nM each), with or without 3.5 μM RanQ69L; BRB80 binding buffer; 30°C

stoichiometry N [1]	median background-corrected fluorescence intensity on microtubules with 100 nM importin α/β and 3.5 µM RanQ69L [2]	median background-corrected fluorescence intensity on microtubules with 400 nM importin β and 3.5 µM RanQ69L [2]	median background-corrected fluorescence intensity on microtubules, control without importin [2]	Substance
< 10				recombinant human augmin complex (GFP-augmin), all eight full-length subunits HAUS1-HAUS8, Q96CS2-1 1-278; Q9NVX0-1 1-235; Q68CZ6-1 1-603; Q9H6D7-1 1-363; O94927-1 1-633; Q7Z4H7-1 1-955; Q99871-1 1-358; Q9BT25-1 1-410
	338	273	321	recombinant human augmin complex (GFP-augmin), all eight full-length subunits HAUS1-HAUS8 (from UniProt Q96CS2-1 1-278; Q9NVX0-1 1-235; Q68CZ6-1 1-603; Q9H6D7-1 1-363; O94927-1 1-633; Q7Z4H7-1 1-955; Q99871-1 1-358; Q9BT25-1 1-410)
